Assay results reported in patent publication US20230257473A1 (TENEOBIO, published 2023).
Values belong to the binder of their own block, whether it stands above or below them.

Tests used:
[1] = molecular target: recombinant BCMA (R&D Systems, catalog no. 193-BC) (human) (UniProt Q02223); test: competitive ELISA, plate-bound BCMA; Ab 200.000 ng/mL; competitor APRIL 0.00 ng/mL
[2] = molecular target: recombinant BCMA (R&D Systems, catalog no. 193-BC) (human) (UniProt Q02223); test: competitive ELISA, plate-bound BCMA; Ab 0.002 ng/mL; competitor APRIL 31.25 ng/mL
[3] = molecular target: BCMA on BCMA-expressing cells (H929 / NCI-H929, MM1.S, U266, Daudi) (human) (UniProt Q02223); test: flow cytometry on MM1.S cells; antibody 100.000 ng/ml
[4] = molecular target: BCMA on BCMA-expressing cells (H929 / NCI-H929, MM1.S, U266, Daudi) (human) (UniProt Q02223); test: flow cytometry on H929 cells; antibody 0.391 ng/ml
[5] = molecular target: recombinant BCMA (R&D Systems, catalog no. 193-BC) (human) (UniProt Q02223); test: competitive ELISA, plate-bound BCMA; Ab 0.002 ng/mL; competitor APRIL 7.81 ng/mL
[6] = molecular target: recombinant BCMA (R&D Systems, catalog no. 193-BC) (human) (UniProt Q02223); test: competitive ELISA, plate-bound BCMA; Ab 20.000 ng/mL; competitor APRIL 0.00 ng/mL
[7] = molecular target: recombinant BCMA (R&D Systems, catalog no. 193-BC) (human) (UniProt Q02223); test: competitive ELISA, plate-bound BCMA; Ab 20.000 ng/mL; competitor APRIL 31.25 ng/mL
[8] = molecular target: recombinant BCMA (R&D Systems, catalog no. 193-BC) (human) (UniProt Q02223); test: competitive ELISA, plate-bound BCMA; Ab 0.020 ng/mL; competitor APRIL 31.25 ng/mL
[9] = molecular target: recombinant BCMA (R&D Systems, catalog no. 193-BC) (human) (UniProt Q02223); test: competitive ELISA, plate-bound BCMA; Ab 200.000 ng/mL; competitor APRIL 31.25 ng/mL
[10] = molecular target: recombinant BCMA (R&D Systems, catalog no. 193-BC) (human) (UniProt Q02223); test: competitive ELISA, plate-bound BCMA; Ab 0.200 ng/mL; competitor APRIL 15.63 ng/mL
[11] = molecular target: BCMA on BCMA-expressing cells (H929 / NCI-H929, MM1.S, U266, Daudi) (human) (UniProt Q02223); test: flow cytometry on MM1.S cells; antibody 3.130 ng/ml
[12] = molecular target: recombinant BCMA (R&D Systems, catalog no. 193-BC) (human) (UniProt Q02223); test: competitive ELISA, plate-bound BCMA; Ab 0.020 ng/mL; competitor APRIL 7.81 ng/mL
[13] = molecular target: BCMA on BCMA-expressing cells (H929 / NCI-H929, MM1.S, U266, Daudi) (human) (UniProt Q02223); test: flow cytometry on H929 cells; antibody 1.560 ng/ml
[14] = molecular target: recombinant BCMA (R&D Systems, catalog no. 193-BC) (human) (UniProt Q02223); test: competitive ELISA, plate-bound BCMA; Ab 2.000 ng/mL; competitor APRIL 15.63 ng/mL
[15] = molecular target: recombinant BCMA (R&D Systems, catalog no. 193-BC) (human) (UniProt Q02223); test: competitive ELISA, plate-bound BCMA; Ab 0.020 ng/mL; competitor APRIL 62.50 ng/mL
[16] = molecular target: recombinant BCMA (R&D Systems, catalog no. 193-BC) (human) (UniProt Q02223); test: competitive ELISA, plate-bound BCMA; Ab 20.000 ng/mL; competitor APRIL 500.00 ng/mL
[17] = molecular target: recombinant BCMA (R&D Systems, catalog no. 193-BC) (human) (UniProt Q02223); test: competitive ELISA, plate-bound BCMA; Ab 2.000 ng/mL; competitor APRIL 125.00 ng/mL
[18] = molecular target: BCMA on BCMA-expressing cells (H929 / NCI-H929, MM1.S, U266, Daudi) (human) (UniProt Q02223); test: flow cytometry on H929 cells; antibody 0.000 ng/ml (background)
[19] = molecular target: recombinant BCMA (R&D Systems, catalog no. 193-BC) (human) (UniProt Q02223); test: competitive ELISA, plate-bound BCMA; Ab 2.000 ng/mL; competitor APRIL 0.00 ng/mL
[20] = molecular target: BCMA on BCMA-expressing cells (H929 / NCI-H929, MM1.S, U266, Daudi) (human) (UniProt Q02223); test: flow cytometry on MM1.S cells; antibody 0.098 ng/ml
[21] = molecular target: recombinant BCMA (R&D Systems, catalog no. 193-BC) (human) (UniProt Q02223); test: competitive ELISA, plate-bound BCMA; Ab 2.000 ng/mL; competitor APRIL 500.00 ng/mL
[22] = molecular target: recombinant BCMA (R&D Systems, catalog no. 193-BC) (human) (UniProt Q02223); test: competitive ELISA, plate-bound BCMA; Ab 0.200 ng/mL; competitor APRIL 62.50 ng/mL
[23] = molecular target: recombinant BCMA (R&D Systems, catalog no. 193-BC) (human) (UniProt Q02223); test: competitive ELISA, plate-bound BCMA; Ab 0.200 ng/mL; competitor APRIL 31.25 ng/mL
[24] = molecular target: BCMA on BCMA-expressing cells (H929 / NCI-H929, MM1.S, U266, Daudi) (human) (UniProt Q02223); test: flow cytometry on H929 cells; antibody 0.781 ng/ml
[25] = molecular target: recombinant BCMA (R&D Systems, catalog no. 193-BC) (human) (UniProt Q02223); test: competitive ELISA, plate-bound BCMA; Ab 0.200 ng/mL; competitor APRIL 7.81 ng/mL
[26] = molecular target: BCMA on BCMA-expressing cells (H929 / NCI-H929, MM1.S, U266, Daudi) (human) (UniProt Q02223); test: flow cytometry on H929 cells; antibody 200.000 ng/ml

Sequence of BCMA on BCMA-expressing cells (H929 / NCI-H929, MM1.S, U266, Daudi) (human) (Q02223 whole entry): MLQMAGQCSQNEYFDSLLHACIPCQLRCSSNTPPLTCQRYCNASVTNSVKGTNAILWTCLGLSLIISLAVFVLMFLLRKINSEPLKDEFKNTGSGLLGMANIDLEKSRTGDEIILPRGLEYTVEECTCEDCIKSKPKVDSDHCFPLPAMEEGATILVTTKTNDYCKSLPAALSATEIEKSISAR
Sequence of recombinant BCMA (R&D Systems, catalog no. 193-BC) (human) (Q02223 5-51 limits assumed): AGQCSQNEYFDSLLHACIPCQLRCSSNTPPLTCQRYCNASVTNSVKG

A450-A570 [1]: 2.44 | A450-A570 [2]: 0.058 | MFI [3]: 2440 | MFI [4]: 5030 | A450-A570 [5]: 0.0607 | A450-A570 [6]: 0.466 | A450-A570 [7]: 0.418 | A450-A570 [8]: 0.0622 | A450-A570 [9]: 2.29 | A450-A570 [10]: 0.0661 | MFI [11]: 2110 | A450-A570 [12]: 0.0631 | MFI [13]: 5100 | A450-A570 [14]: 0.0867 | A450-A570 [15]: 0.0629 | A450-A570 [16]: 0.112 | A450-A570 [17]: 0.0736 | MFI [18]: 5000 | A450-A570 [19]: 0.0894 | MFI [20]: 2040 | A450-A570 [21]: 0.0711 | A450-A570 [22]: 0.0631 | A450-A570 [23]: 0.062 | MFI [24]: 5060 | A450-A570 [25]: 0.0643 | MFI [26]: 14100
B1: anti-BCMA heavy chain-only antibody (UniAb) with the VH of SEQ ID NO: 12 (antibody, V domains shown)
VH: QVQLVESGGGLVQPGGSLRLSCVASGFTFSSNAMSWVRQAPGKGLEWVSAISGSGDYTHYSDSVKGRFTISRDNSKNTLYLQMNSLRAEDTAVYYCAKEVPGGPLVDFDSRGQGTLVTVSS
notes: Heavy chain-only antibody from UniRat; also called Clone ID No: 316302

A450-A570 [1]: 2.47 | A450-A570 [2]: 0.0528 | MFI [3]: 4140 | MFI [4]: 5040 | A450-A570 [5]: 0.0602 | A450-A570 [6]: 0.648 | A450-A570 [7]: 0.828 | A450-A570 [8]: 0.0551 | A450-A570 [9]: 2.42 | A450-A570 [10]: 0.0587 | MFI [11]: 2070 | A450-A570 [12]: 0.0578 | MFI [13]: 5060 | A450-A570 [14]: 0.107 | A450-A570 [15]: 0.0577 | A450-A570 [16]: 0.253 | A450-A570 [17]: 0.108 | MFI [18]: 5000 | A450-A570 [19]: 0.107 | MFI [20]: 1960 | A450-A570 [21]: 0.0732 | A450-A570 [22]: 0.0595 | A450-A570 [23]: 0.0601 | MFI [24]: 5020 | A450-A570 [25]: 0.0577 | MFI [26]: 52900
B2: AntiX**BCMA_F7E_F7E (bispecific antibody, part only; not given: other chains of three-chain format, not shown: another chain or arm of the molecule)
tandem VH: QVQLVESGGGLVQPGGSLRLSCVASGFTFSSNAMSWVRQAPGKGLEWVSAISGSGDYTHYSDSVKGRFTISRDNSKNTLYLQMNSLRAEDTAVYYCAKEVPGGPLVDFDSRGQGTLVTVSSGGGGSGGGGSQVQLVESGGGLVQPGGSLRLSCVASGFTFSSNAMSWVRQAPGKGLEWVSAISGSGDYTHYSDSVKGRFTISRDNSKNTLYLQMNSLRAEDTAVYYCAKEVPGGPLVDFDSRGQGTLVTVSS
